According to patent US20150344570A1 (published 2015):

T1: FcγRIIa R (FcγRIIa, allotype with Arg at position 131), extracellular domain with C-terminal His tag (human, UniProt P12318 34-217)
T1 construct: extracellular domain; also called FcγRIIa R type; 2aR
T1 sequence (looked up): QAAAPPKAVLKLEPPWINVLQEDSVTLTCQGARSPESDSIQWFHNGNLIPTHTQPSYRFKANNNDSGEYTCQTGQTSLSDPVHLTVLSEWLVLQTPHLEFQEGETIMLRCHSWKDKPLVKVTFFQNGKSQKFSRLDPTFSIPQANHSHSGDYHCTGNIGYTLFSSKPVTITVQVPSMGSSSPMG


Molecular target: T1, FcγRIIa R (FcγRIIa, allotype with Arg …)
Assay: SPR (Biacore), antibody captured on antigen peptide chip, FcγR as analyte; relative binding

Binder | He/Con_2aR
GpH7-A5/GpH7-B3 variant S239_18N/GpL16-k0 (antibody, human IgG1, kappa, also called He Ab) heavy 1: not shown heavy 2: not shown light: DIVMTQSPLSLPVTPGEPASISCQASESLVHSNRNTYLHWYLQKPGQSPQLLIYKVSNRFSGVPDRFSGSGSGTDFTLKISRVEAEDVGVYYCSQNTHVPPTFGQGTKVEIERTVAAPSVFIFPPSDEQLKSGTASVVCLLNNFYPREAKVQWKVDNALQSGNSQESVTEQDSKDSTYSLSSTLTLSKADYEKHKVYACEVTHQGLSSPVTKSFNRGEC | 111 % of GpH7-A5/GpH7-B3/GpL16-k0 (=100)
GpH7-A5/GpH7-B3 variant S324_06M/GpL16-k0 (antibody, human IgG1, kappa, also called He Ab) heavy 1: not shown heavy 2: not shown light: DIVMTQSPLSLPVTPGEPASISCQASESLVHSNRNTYLHWYLQKPGQSPQLLIYKVSNRFSGVPDRFSGSGSGTDFTLKISRVEAEDVGVYYCSQNTHVPPTFGQGTKVEIERTVAAPSVFIFPPSDEQLKSGTASVVCLLNNFYPREAKVQWKVDNALQSGNSQESVTEQDSKDSTYSLSSTLTLSKADYEKHKVYACEVTHQGLSSPVTKSFNRGEC | 123 % of GpH7-A5/GpH7-B3/GpL16-k0 (=100)
GpH7-A5/GpH7-B3 variant S337_06M/GpL16-k0 (antibody, human IgG1, kappa, also called He Ab) heavy 1: not shown heavy 2: not shown light: DIVMTQSPLSLPVTPGEPASISCQASESLVHSNRNTYLHWYLQKPGQSPQLLIYKVSNRFSGVPDRFSGSGSGTDFTLKISRVEAEDVGVYYCSQNTHVPPTFGQGTKVEIERTVAAPSVFIFPPSDEQLKSGTASVVCLLNNFYPREAKVQWKVDNALQSGNSQESVTEQDSKDSTYSLSSTLTLSKADYEKHKVYACEVTHQGLSSPVTKSFNRGEC | 105 % of GpH7-A5/GpH7-B3/GpL16-k0 (=100)
GpH7-A5/GpH7-B3 variant S298_08L/GpL16-k0 (antibody, human IgG1, kappa, also called He Ab) heavy 1: not shown heavy 2: not shown light: DIVMTQSPLSLPVTPGEPASISCQASESLVHSNRNTYLHWYLQKPGQSPQLLIYKVSNRFSGVPDRFSGSGSGTDFTLKISRVEAEDVGVYYCSQNTHVPPTFGQGTKVEIERTVAAPSVFIFPPSDEQLKSGTASVVCLLNNFYPREAKVQWKVDNALQSGNSQESVTEQDSKDSTYSLSSTLTLSKADYEKHKVYACEVTHQGLSSPVTKSFNRGEC | 105 % of GpH7-A5/GpH7-B3/GpL16-k0 (=100)
GpH7-A5/GpH7-B3 variant S337_07I/GpL16-k0 (antibody, human IgG1, kappa, also called He Ab) heavy 1: not shown heavy 2: not shown light: DIVMTQSPLSLPVTPGEPASISCQASESLVHSNRNTYLHWYLQKPGQSPQLLIYKVSNRFSGVPDRFSGSGSGTDFTLKISRVEAEDVGVYYCSQNTHVPPTFGQGTKVEIERTVAAPSVFIFPPSDEQLKSGTASVVCLLNNFYPREAKVQWKVDNALQSGNSQESVTEQDSKDSTYSLSSTLTLSKADYEKHKVYACEVTHQGLSSPVTKSFNRGEC | 109 % of GpH7-A5/GpH7-B3/GpL16-k0 (=100)
GpH7-A5/GpH7-B3 variant S337_10E/GpL16-k0 (antibody, human IgG1, kappa, also called He Ab) heavy 1: not shown heavy 2: not shown light: DIVMTQSPLSLPVTPGEPASISCQASESLVHSNRNTYLHWYLQKPGQSPQLLIYKVSNRFSGVPDRFSGSGSGTDFTLKISRVEAEDVGVYYCSQNTHVPPTFGQGTKVEIERTVAAPSVFIFPPSDEQLKSGTASVVCLLNNFYPREAKVQWKVDNALQSGNSQESVTEQDSKDSTYSLSSTLTLSKADYEKHKVYACEVTHQGLSSPVTKSFNRGEC | 112 % of GpH7-A5/GpH7-B3/GpL16-k0 (=100)
GpH7-A5/GpH7-B3 variant S337_08L/GpL16-k0 (antibody, human IgG1, kappa, also called He Ab) heavy 1: not shown heavy 2: not shown light: DIVMTQSPLSLPVTPGEPASISCQASESLVHSNRNTYLHWYLQKPGQSPQLLIYKVSNRFSGVPDRFSGSGSGTDFTLKISRVEAEDVGVYYCSQNTHVPPTFGQGTKVEIERTVAAPSVFIFPPSDEQLKSGTASVVCLLNNFYPREAKVQWKVDNALQSGNSQESVTEQDSKDSTYSLSSTLTLSKADYEKHKVYACEVTHQGLSSPVTKSFNRGEC | 107 % of GpH7-A5/GpH7-B3/GpL16-k0 (=100)
GpH7-A5/GpH7-B3 variant S267_09D/GpL16-k0 (antibody, human IgG1, kappa, also called He Ab) heavy 1: not shown heavy 2: not shown light: DIVMTQSPLSLPVTPGEPASISCQASESLVHSNRNTYLHWYLQKPGQSPQLLIYKVSNRFSGVPDRFSGSGSGTDFTLKISRVEAEDVGVYYCSQNTHVPPTFGQGTKVEIERTVAAPSVFIFPPSDEQLKSGTASVVCLLNNFYPREAKVQWKVDNALQSGNSQESVTEQDSKDSTYSLSSTLTLSKADYEKHKVYACEVTHQGLSSPVTKSFNRGEC | 173 % of GpH7-A5/GpH7-B3/GpL16-k0 (=100)
GpH7-A5/GpH7-B3 variant S267_19Q/GpL16-k0 (antibody, human IgG1, kappa, also called He Ab) heavy 1: not shown heavy 2: not shown light: DIVMTQSPLSLPVTPGEPASISCQASESLVHSNRNTYLHWYLQKPGQSPQLLIYKVSNRFSGVPDRFSGSGSGTDFTLKISRVEAEDVGVYYCSQNTHVPPTFGQGTKVEIERTVAAPSVFIFPPSDEQLKSGTASVVCLLNNFYPREAKVQWKVDNALQSGNSQESVTEQDSKDSTYSLSSTLTLSKADYEKHKVYACEVTHQGLSSPVTKSFNRGEC | 135 % of GpH7-A5/GpH7-B3/GpL16-k0 (=100)
GpH7-A5/GpH7-B3 variant S298_06M/GpL16-k0 (antibody, human IgG1, kappa, also called He Ab) heavy 1: not shown heavy 2: not shown light: DIVMTQSPLSLPVTPGEPASISCQASESLVHSNRNTYLHWYLQKPGQSPQLLIYKVSNRFSGVPDRFSGSGSGTDFTLKISRVEAEDVGVYYCSQNTHVPPTFGQGTKVEIERTVAAPSVFIFPPSDEQLKSGTASVVCLLNNFYPREAKVQWKVDNALQSGNSQESVTEQDSKDSTYSLSSTLTLSKADYEKHKVYACEVTHQGLSSPVTKSFNRGEC | 108 % of GpH7-A5/GpH7-B3/GpL16-k0 (=100)
GpH7-A5/GpH7-B3 variant S337_03V/GpL16-k0 (antibody, human IgG1, kappa, also called He Ab) heavy 1: not shown heavy 2: not shown light: DIVMTQSPLSLPVTPGEPASISCQASESLVHSNRNTYLHWYLQKPGQSPQLLIYKVSNRFSGVPDRFSGSGSGTDFTLKISRVEAEDVGVYYCSQNTHVPPTFGQGTKVEIERTVAAPSVFIFPPSDEQLKSGTASVVCLLNNFYPREAKVQWKVDNALQSGNSQESVTEQDSKDSTYSLSSTLTLSKADYEKHKVYACEVTHQGLSSPVTKSFNRGEC | 106 % of GpH7-A5/GpH7-B3/GpL16-k0 (=100)
GpH7-A5/GpH7-B3 variant S337_04F/GpL16-k0 (antibody, human IgG1, kappa, also called He Ab) heavy 1: not shown heavy 2: not shown light: DIVMTQSPLSLPVTPGEPASISCQASESLVHSNRNTYLHWYLQKPGQSPQLLIYKVSNRFSGVPDRFSGSGSGTDFTLKISRVEAEDVGVYYCSQNTHVPPTFGQGTKVEIERTVAAPSVFIFPPSDEQLKSGTASVVCLLNNFYPREAKVQWKVDNALQSGNSQESVTEQDSKDSTYSLSSTLTLSKADYEKHKVYACEVTHQGLSSPVTKSFNRGEC | 105 % of GpH7-A5/GpH7-B3/GpL16-k0 (=100)
GpH7-A5/GpH7-B3 variant S267_06M/GpL16-k0 (antibody, human IgG1, kappa, also called He Ab) heavy 1: not shown heavy 2: not shown light: DIVMTQSPLSLPVTPGEPASISCQASESLVHSNRNTYLHWYLQKPGQSPQLLIYKVSNRFSGVPDRFSGSGSGTDFTLKISRVEAEDVGVYYCSQNTHVPPTFGQGTKVEIERTVAAPSVFIFPPSDEQLKSGTASVVCLLNNFYPREAKVQWKVDNALQSGNSQESVTEQDSKDSTYSLSSTLTLSKADYEKHKVYACEVTHQGLSSPVTKSFNRGEC | 122 % of GpH7-A5/GpH7-B3/GpL16-k0 (=100)
GpH7-A5/GpH7-B3 variant S267_03V/GpL16-k0 (antibody, human IgG1, kappa, also called He Ab) heavy 1: not shown heavy 2: not shown light: DIVMTQSPLSLPVTPGEPASISCQASESLVHSNRNTYLHWYLQKPGQSPQLLIYKVSNRFSGVPDRFSGSGSGTDFTLKISRVEAEDVGVYYCSQNTHVPPTFGQGTKVEIERTVAAPSVFIFPPSDEQLKSGTASVVCLLNNFYPREAKVQWKVDNALQSGNSQESVTEQDSKDSTYSLSSTLTLSKADYEKHKVYACEVTHQGLSSPVTKSFNRGEC | 116 % of GpH7-A5/GpH7-B3/GpL16-k0 (=100)
GpH7-A5/GpH7-B3 variant S324_04F/GpL16-k0 (antibody, human IgG1, kappa, also called He Ab) heavy 1: not shown heavy 2: not shown light: DIVMTQSPLSLPVTPGEPASISCQASESLVHSNRNTYLHWYLQKPGQSPQLLIYKVSNRFSGVPDRFSGSGSGTDFTLKISRVEAEDVGVYYCSQNTHVPPTFGQGTKVEIERTVAAPSVFIFPPSDEQLKSGTASVVCLLNNFYPREAKVQWKVDNALQSGNSQESVTEQDSKDSTYSLSSTLTLSKADYEKHKVYACEVTHQGLSSPVTKSFNRGEC | 104 % of GpH7-A5/GpH7-B3/GpL16-k0 (=100)
GpH7-A5/GpH7-B3 variant S337_09D/GpL16-k0 (antibody, human IgG1, kappa, also called He Ab) heavy 1: not shown heavy 2: not shown light: DIVMTQSPLSLPVTPGEPASISCQASESLVHSNRNTYLHWYLQKPGQSPQLLIYKVSNRFSGVPDRFSGSGSGTDFTLKISRVEAEDVGVYYCSQNTHVPPTFGQGTKVEIERTVAAPSVFIFPPSDEQLKSGTASVVCLLNNFYPREAKVQWKVDNALQSGNSQESVTEQDSKDSTYSLSSTLTLSKADYEKHKVYACEVTHQGLSSPVTKSFNRGEC | 115 % of GpH7-A5/GpH7-B3/GpL16-k0 (=100)
